This passage reports Kd and normalised SPOT signal, Boehringer light units (BLU); mean over the file's lines of this peptide results from article PMC314469, “Protein Interaction Networks by Proteome Peptide Scanning” (PLoS Biology, 2004).

Experiment [1] concerns the target T1, BOI2 SH3 domain (Saccharomyces cerevisiae).
T1 chain: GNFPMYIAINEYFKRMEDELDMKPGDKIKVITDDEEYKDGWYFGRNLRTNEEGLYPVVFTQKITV
The experiment in a line: SPR. The note with it: modification not given.

Experiment [2] deals with T2, Abp1 SH3 (ABP1_YEAST), P15891.
T2 chain: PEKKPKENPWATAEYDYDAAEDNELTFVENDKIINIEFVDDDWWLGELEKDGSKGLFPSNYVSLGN
The experiment in a line: SPOT array.

For experiment [3], the target named is T3, Boi1 SH3 (BOI1_YEAST), P38041.
T3 chain: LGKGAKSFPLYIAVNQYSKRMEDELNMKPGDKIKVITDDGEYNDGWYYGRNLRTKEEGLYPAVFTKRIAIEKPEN
The experiment in a line: SPOT array.

The target of experiment [4] is T4, Boi2 SH3 (BOI2_YEAST), P39969.
T4 chain: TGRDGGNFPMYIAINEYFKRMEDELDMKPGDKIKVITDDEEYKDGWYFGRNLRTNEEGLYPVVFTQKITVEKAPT
Kind of experiment: SPOT array.

For experiment [5], the target named is T5, Myo5 SH3 (MYO5_YEAST), Q04439.
T5 chain: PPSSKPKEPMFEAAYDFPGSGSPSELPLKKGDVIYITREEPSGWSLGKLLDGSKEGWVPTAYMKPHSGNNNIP
The experiment in a line: SPOT array.

Experiment [6] addresses T6, Rvs167 SH3 (RV167_YEAST), P39743.
T6 chain: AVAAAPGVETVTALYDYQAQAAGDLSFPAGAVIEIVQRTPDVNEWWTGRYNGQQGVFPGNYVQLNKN
The experiment in a line: SPOT array.

For experiment [7], the target named is Sho1 SH3 (SHO1_YEAST), P40073. The experiment in a line: SPOT array.
Experiment [8] concerns the target T7, Yfr024 SH3 (LSB3_YEAST), P43603.
T7 chain: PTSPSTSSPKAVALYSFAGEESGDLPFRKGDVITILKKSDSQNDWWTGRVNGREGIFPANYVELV
Kind of experiment: SPOT array.

In experiment [9] the target is T8, Yhr016c SH3 (YSC84_YEAST), P32793.
T8 chain: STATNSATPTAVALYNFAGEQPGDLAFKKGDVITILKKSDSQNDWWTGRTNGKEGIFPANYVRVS
Kind of experiment: SPOT array.

Experiment [10] addresses T9, GST-Abp1 SH3 domain (S. cerevisiae), P15891.
T9 chain: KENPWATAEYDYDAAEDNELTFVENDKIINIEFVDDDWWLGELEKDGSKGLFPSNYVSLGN
The experiment in a line: SPR. The note with it: modification not given.

The target in experiment [11] is T10, RVS167 SH3 domain (Saccharomyces cerevisiae).
T10 chain: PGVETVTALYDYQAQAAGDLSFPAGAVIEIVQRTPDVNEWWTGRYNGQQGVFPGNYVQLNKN
Kind of experiment: SPR. The note with it: modification not given.

For experiment [12], the target named is T11, YFR024C SH3 domain (Saccharomyces cerevisiae).
T11 chain: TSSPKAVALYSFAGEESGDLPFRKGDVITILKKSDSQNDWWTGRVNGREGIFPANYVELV
Kind of experiment: SPR. The note with it: modification not given.

The target of experiment [13] is T12, YSC84 SH3 domain (Saccharomyces cerevisiae).
T12 chain: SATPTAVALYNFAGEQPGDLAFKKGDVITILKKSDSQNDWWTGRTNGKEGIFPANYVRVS
The experiment in a line: SPR. The note with it: modification not given.

A value given as a limit tells only on which side of the number the result lay.

Sho1 SH3 (SHO1_YEAST), P40073, sequence (P40073 295-366): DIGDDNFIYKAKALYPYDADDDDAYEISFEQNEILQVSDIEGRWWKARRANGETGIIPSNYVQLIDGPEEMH

B1: ACF2 peptide … (peptide)
chain: GTTNRGPPPLPPRA
On to B1, for which the Kd in experiment [1] was more than 100 µM.

B2: YDR151C 76-89 (peptide)
chain: EYSPRPSPWLPSKP
Regarding B2, the normalised SPOT signal, Boehringer light units (BLU); mean over the file's lines of this peptide came to 519 in [2]; 184 in [3]; 22.4 in experiment [4]; 73.7 in [5]; 54.8 in experiment [6]; 34.7 in experiment [7]. Besides, the normalised SPOT signal, Boehringer light units (BLU); mean over the file's lines of this peptide turned out to be 668 in [8] and 107 in experiment [9].

B3: YBR239C peptide … (peptide)
chain: NQPDLPPRKIMIP
With B3, the Kd was more than 100 µM in experiment [1]; more than 100 µM in experiment [10]; 39 µM in [11]; 22 µM in experiment [12]; 16 µM in experiment [13].

B4: YBR108W peptide … (peptide)
chain: NAPERAVPILPPRN
Molecule B4 showed a dissociation constant Kd in [1] of more than 100 µM.

B5: LAS17 peptide … (peptide)
chain: PQQNRPLPQLPNRN
For the molecule B5, the dissociation constant (Kd) in experiment [1] is more than 100 µM; in experiment [11] it was 32 µM.

B6: YDR359C 772-785 (peptide)
chain: ENTPRPNPTQPRKP
Consider B6, for which the normalised SPOT signal, Boehringer light units (BLU); mean over the file's lines of this peptide in [2] was 102; in experiment [3], 154; in [4], 0; in experiment [5], 137; in experiment [6], 53.6; in experiment [7], 13.1. The results for the normalised SPOT signal, Boehringer light units (BLU); mean over the file's lines of this peptide in [8] and in experiment [9] were 205 and 54.9, respectively.

B7: INP52 peptide … (peptide)
chain: ASTKPEKPPVVKKP
B7: the dissociation constant (Kd) in experiment [10] was more than 100 µM.

B8: YOR058C 189-202 (peptide)
chain: LQESKTVPQSPKKP
Consider B8, for which the normalised SPOT signal, Boehringer light units (BLU); mean over the file's lines of this peptide in [2] was determined as 224; in [3] it was 22.8; in experiment [4], 15.3; in experiment [5], 159; in experiment [6], 50.4; in [7] it was 37.8. In addition, the normalised SPOT signal, Boehringer light units (BLU); mean over the file's lines of this peptide was found to be 19.6 in experiment [8] and 9.2 in experiment [9].

B9: YBR108W peptide … (peptide)
chain: RAVPILPPRNNVEP
For B9, the dissociation constant Kd was more than 100 µM in experiment [1], 39 µM in experiment [11] and 13 µM in experiment [13].

B10: YBR108W 80-93 (peptide)
chain: LKDPKSFPPPPLKP
On to B10, for which the normalised SPOT signal, Boehringer light units (BLU); mean over the file's lines of this peptide in experiment [2] amounted to 124; in [3], 55.3; in experiment [4] it was 45.6; in experiment [5] it was 253; in experiment [6] it was 78.4; in experiment [7] it was 78.9. Also, the normalised SPOT signal, Boehringer light units (BLU); mean over the file's lines of this peptide in experiment [8] amounted to 62.9; in experiment [9], 6.5.

B11: LAS17 peptide … (peptide)
chain: RPLPQLPNRNNRPV
For the molecule B11, the dissociation constant Kd is more than 100 µM in experiment [1], more than 100 µM in experiment [10], 8.9 µM in [12] and 9.6 µM in [13].

B12: DEM1 peptide … (peptide)
chain: DIKTRSVPKIPSIE
As to B12, the Kd in experiment [1], in experiment [11], in experiment [12] and in experiment [13] was more than 100 µM throughout.

B13: YPR095C 154-167 (peptide)
chain: KRNSKHAPFIPVKP
As to B13, the normalised SPOT signal, Boehringer light units (BLU); mean over the file's lines of this peptide in experiment [2] turned out to be 1030; in experiment [3], 412; in experiment [4] it was 37; in experiment [5], 382; in [6], 68.7; in experiment [7], 86.4. In addition, the normalised SPOT signal, Boehringer light units (BLU); mean over the file's lines of this peptide was 751 in experiment [8] and 150 in experiment [9].

B14: ACF2 peptide … (peptide)
chain: RGPPPLPPRANVQP
Consider B14, for which, in experiment [1], the dissociation constant Kd is more than 100 µM.
